Results on four proteins are retold here after article doi:10.1101/2022.09.09.507385 (bioRxiv, 2022).

Numbering of substitutions follows the chain as printed. Numbers in names are those of the source.

One may read the stoichiometry N as the number of molecules, sites or subunits per partner or assembly.

The series concerns the molecule itself. Briefly: cryo-EM structure.

B1: human Pannexin3 (PANX3), full length (natural protein)
chain: MSLAHTAAEYMLSDALLPDRRGPRLKGLRLELPLDRIVKFVAVGSPLLLMSLAFAQEFSSGSPISCFSPSNFSIRQAAYVDSSCWDSLLHHKQDGPGQDKMKSLWPHKALPYSLLALALLMYLPVLLWQYAAVPALSSDLLFIISELDKSYNRSIRLVQHMLKIRQKSSDPYVFWNELEKARKERYFEFPLLERYLACKQRSHSLVATYLLRNSLLLIFTSATYLYLGHFHLDVFFQEEFSCSIKTGLLSDETHVPNLITCRLTSLSIFQIVSLSSVAIYTILVPVIIYNLTRLCRWDKRLLSVYEMLPAFDLLSRKMLGCPINDLNVILLFLRANISELISFSWLSVLCVLKDTTTQKHNIDTVVDFMTLLAGLEPSKPKHLTNSACDEHP
modifications: N-acetylglucosamine (NAG) at N71; disulfide bonds C66-C261 and C84-C242
For B1, the “stoichiometry N” value was found to be 7.

B2: human Pannexin1 wild type (PANX1WT), full length (natural protein)
chain: MAIAQLATEYVFSDFLLKEPTEPKFKGLRLELAVDKMVTCIAVGLPLLLISLAFAQEISIGTQISCFSPSSFSWRQAAFVDSYCWAAVQQKNSLQSESGNLPLWLHKFFPYILLLFAILLYLPPLFWRFAAAPHICSDLKFIMEELDKVYNRAIKAAKSARDLDMRDGACSVPGVTENLGQSLWEVSESHFKYPIVEQYLKTKKNSNNLIIKYISCRLLTLIIILLACIYLGYYFSLSSLSDEFVCSIKSGILRNDSTVPDQFQCKLIAVGIFQLLSVINLVVYVLLAPVVVYTLFVPFRQKTDVLKVYEILPTFDVLHFKSEGYNDLSLYNLFLEENISEVKSYKCLKVLENIKSSGQGIDPMLLLTNLGMIKMDVVDGKTPMSAEMREEQGNQTAELQGMNIDSETKANNGEKNARQRLLDSSC
With B2, the binding result was “binds”.

B3: human Pannexin1 double mutant W74R/R75D (PANX1DM) (natural protein)
chain: B2 chain with W74R, R75D
Turning to B3, the binding result is reported as “binds”.

B4: human Pannexin1 congenital mutant R217H (PANX1_(R217H)) (natural protein)
chain: B2 chain with R217H
Take B4: the binding result is recorded as “binds”.
